From patent US20250026849A1 (ARCELLX, published 2025) come the findings set out here.

The chains are these.
B1: D domain SEQ ID NO: 922 (designed binder)
chain: MGSWFEFSNRLYAIWHRLTALGGSEAELAAFEKEIAAFESELQAYKGKGNPEVESLRTQAAFIRILLQAYRHN
B2: D domain SEQ ID NO: 924 (designed binder)
chain: MGSWFEFEDRLFAIWTRLEALGGSEAELAAFEKEIAAFESELQAYKGKGNPEVESLRQSAASIRWLLQAYRHN
B3: D domain SEQ ID NO: 923 (designed binder)
chain: MGSWFEFSDRLYAIWERLDALGGSEAELAAFEKEIAAFESELQAYKGKGNPEVESLRFQAAFIRYQLQAYRHN
B4: D domain SEQ ID NO: 925 (designed binder)
chain: MGSWHEFSERLFAIWTRLEALGGSEAELAAFEKEIAAFESELQAYKGKGNPEVEALRQSAAFIRVMLQAYRHN
B5: D domain SEQ ID NO: 921 (designed binder)
chain: MGSWHEFYDRLYAIWDRLDALGGSEAELAAFEKEIAAFESELQAYKGKGNPEVEGLRNAAAVIRIFLQAYRHN
B6: D domain SEQ ID NO: 920 (designed binder)
chain: MGSWSEFTDRLFAIEDRLLALGGSEAELAAFEKEIAAFESELQAYKGKGNPEVEDLRMHAASIRLWLQAYRHN
B7: D domain SEQ ID NO: 919 (designed binder)
chain: MGSWVEFYHRLDAIFDRLDALGGSEAELAAFEKEIAAFESELQAYKGKGNPEVEELRANAAGIRSWLQAYRHN
B8: D domain SEQ ID NO: 928 (designed binder)
chain: MGSWSIFKYHLADIKLLLEALGGSEAELAYFEFLIADFEFTLQDYKGKGNPEVEALRKEAAAIRDELQAYRHN
B9: D domain SEQ ID NO: 931 (designed binder)
chain: MGSWFYFKYELAWIKHWLEALGGSEAELASFETHIAFFEHQLQYYKGKGNPEVEALRKEAAAIRDELQAYRHN
B10: D domain SEQ ID NO: 930 (designed binder)
chain: MGSWLYFKYNLAVIKHWLEALGGSEAELAIFEMSIADFEYELQWYKGKGNPEVEALRKEAAAIRDELQAYRHN
B11: D domain SEQ ID NO: 929 (designed binder)
chain: MGSWHHFKYFLADIKSILEALGGSEAELAIFEVQIAYFEDLLQSYKGKGNPEVEALRKEAAAIRDELQAYRHN
B12: D domain SEQ ID NO: 926 (designed binder)
chain: MGSWGEFTVRLYAIDRRLDALGGSEAELAAFEKEIAAFESELQAYKGKGNPEVEELRRFAAIIRAFLQAYRHN
B13: D domain SEQ ID NO: 932 (designed binder)
chain: MGSWADFKWTLAYIKHRLEALGGSEAELAFFEMEIAYFEQSLQNYKGKGNPEVEALRKEAAAIRDELQAYRHN
B14: D domain SEQ ID NO: 927 (designed binder)
chain: MGSWYEFDHRLMAISFRLVALGGSEAELAAFEKEIAAFESELQAYKGKGNPEVETLRRRAANIRHLLQAYRHN
B15: D domain SEQ ID NO: 892 (designed binder)
chain: MGSWTEFHQRLDAIDERLWALGGSEAELAAFEKEIAAFESELQAYKGKGNPEVEFLREHAAKIRMWLQAYRHN
B16: D domain SEQ ID NO: 901 (designed binder)
chain: MGSWMEFNHRLQAIDGRLWALGGSEAELAAFEKEIAAFESELQAYKGKGNPEVEMLREHAAAIRAFLQAYRHN
B17: D domain SEQ ID NO: 900 (designed binder)
chain: MGSWAEFSDRLNAIDQRLWALGGSEAELAAFEKEIAAFESELQAYKGKGNPEVEILREHAAEIRKFLQAYRHN
B18: D domain SEQ ID NO: 904 (designed binder)
chain: MGSWYEFVSRLEAIDDRLYALGGSEAELAAFEKEIAAFESELQAYKGKGNPEVEMLRQHAAAIRHWLQAYRHN
B19: D domain SEQ ID NO: 895 (designed binder)
chain: MGSWMEFVDRLSAIDRRLWALGGSEAELAAFEKEIAAFESELQAYKGKGNPEVEVLREHAANIRQWLQAYRHN
B20: D domain SEQ ID NO: 899 (designed binder)
chain: MGSWTEFYQRLDAIDTRLWALGGSEAELAAFEKEIAAFESELQAYKGKGNPEVEGLRQQAAQIRAWLQAYRHN
B21: D domain SEQ ID NO: 897 (designed binder)
chain: MGSWSEFHTRLDAIDTRLWALGGSEAELAAFEKEIAAFESELQAYKGKGNPEVEDLRRHAAAIRFWLQAYRHN
B22: D domain SEQ ID NO: 914 (designed binder)
chain: MGSWYEFYLRLSAIEDRLFALGGSEAELAAFEKEIAAFESELQAYKGKGNPEVESLRVQAAHIRTWLQAYRHN
B23: D domain SEQ ID NO: 915 (designed binder)
chain: MGSWYEFYDRLDAIEDRLFALGGSEAELAAFEKEIAAFESELQAYKGKGNPEVESLRDQAAYIRTWLQAYRHN
B24: D domain SEQ ID NO: 916 (designed binder)
chain: MGSWHEFWVRLEAIESRLFALGGSEAELAAFEKEIAAFESELQAYKGKGNPEVESLRVQAAHIRSWLQAYRHN
B25: D domain SEQ ID NO: 898 (designed binder)
chain: MGSWLEFHSRLDAIDTRLWALGGSEAELAAFEKEIAAFESELQAYKGKGNPEVEKLREHAAAIRHYLQAYRHN
B26: D domain SEQ ID NO: 912 (designed binder)
chain: MGSWSEFVHRLDAIEVRLFALGGSEAELAAFEKEIAAFESELQAYKGKGNPEVEELRYHAAKIRSWLQAYRHN
B27: D domain SEQ ID NO: 908 (designed binder)
chain: MGSWYEFMYRLDAIEYRLFALGGSEAELAAFEKEIAAFESELQAYKGKGNPEVESLRIHAAMIREWLQAYRHN
B28: D domain SEQ ID NO: 894 (designed binder)
chain: MGSWTEFVNRLYAIDSRLWALGGSEAELAAFEKEIAAFESELQAYKGKGNPEVEGLRTHAAKIRHWLQAYRHN
B29: D domain SEQ ID NO: 910 (designed binder)
chain: MGSWYEFVIRLDAIEDRLFALGGSEAELAAFEKEIAAFESELQAYKGKGNPEVEHLRVHAAHIRVWLQAYRHN
B30: D domain SEQ ID NO: 909 (designed binder)
chain: MGSWVEFVTRLEAIEDRLFALGGSEAELAAFEKEIAAFESELQAYKGKGNPEVEHLRAHAAHIRHWLQAYRHN
B31: D domain SEQ ID NO: 906 (designed binder)
chain: MGSWFEFFERLAAIEDRLWALGGSEAELAAFEKEIAAFESELQAYKGKGNPEVESLRVHAAAIRAFLQAYRHN
B32: D domain SEQ ID NO: 902 (designed binder)
chain: MGSWYEFYKRLEAIDNRLYALGGSEAELAAFEKEIAAFESELQAYKGKGNPEVEYLREHAAAIRHWLQAYRHN
B33: D domain SEQ ID NO: 893 (designed binder)
chain: MGSWLEFSQRLTAIDSRLWALGGSEAELAAFEKEIAAFESELQAYKGKGNPEVENLREHAAKIRNWLQAYRHN
B34: D domain SEQ ID NO: 918 (designed binder)
chain: MGSWVEFYERLNAIEYRLEALGGSEAELAAFEKEIAAFESELQAYKGKGNPEVESLREHAAYIRQWLQAYRHN
B35: D domain SEQ ID NO: 911 (designed binder)
chain: MGSWVEFVERLDAIEFRLFALGGSEAELAAFEKEIAAFESELQAYKGKGNPEVEKLRNHAAHIRSWLQAYRHN
B36: D domain SEQ ID NO: 907 (designed binder)
chain: MGSWIEFKYRLDAIEWRLEALGGSEAELAAFEKEIAAFESELQAYKGKGNPEVESLRIHAAAIRTWLQAYRHN
B37: D domain SEQ ID NO: 896 (designed binder)
chain: MGSWVEFVSRLYAIDFRLWALGGSEAELAAFEKEIAAFESELQAYKGKGNPEVEALREHAAQIRDWLQAYRHN
B38: D domain SEQ ID NO: 913 (designed binder)
chain: MGSWSEFYYRLAAIESRLFALGGSEAELAAFEKEIAAFESELQAYKGKGNPEVERLREHAAHIRRWLQAYRHN
B39: D domain SEQ ID NO: 903 (designed binder)
chain: MGSWYEFYYRLEAIDNRLIALGGSEAELAAFEKEIAAFESELQAYKGKGNPEVEVLREHAAKIREWLQAYRHN
B40: D domain SEQ ID NO: 917 (designed binder)
chain: MGSWVEFYHRLEAIEQRLMALGGSEAELAAFEKEIAAFESELQAYKGKGNPEVESLREQAAAIRSWLQAYRHN
B41: D domain SEQ ID NO: 905 (designed binder)
chain: MGSWYEFSHRLEAIEDRLFALGGSEAELAAFEKEIAAFESELQAYKGKGNPEVEPLREHAAYIRHWLQAYRHN

This test has as its target T1, P26 (human, UniProt P02771 381-609, limits assumed).
T1 construct: also called AFP p26
T1 sequence: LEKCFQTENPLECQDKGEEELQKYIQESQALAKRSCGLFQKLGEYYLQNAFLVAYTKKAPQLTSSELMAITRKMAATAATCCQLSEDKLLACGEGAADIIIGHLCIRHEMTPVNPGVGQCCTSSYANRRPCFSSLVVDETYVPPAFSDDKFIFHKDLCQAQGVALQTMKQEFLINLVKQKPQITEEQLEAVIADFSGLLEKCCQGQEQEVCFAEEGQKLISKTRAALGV
The experiment in a line: ELISA, format not described. Details: unit not given here. For orientation: In an ELISA, binding on a coated surface is turned into a signal by an enzyme label.
B1 had an ELISA_avg of 15.2. In the case of B2 it was 10.9; in that of B3, 19; in that of B4, 8.21. Molecule B5 returned an ELISA_avg of 22.9. The molecule B6 registered an ELISA_avg of 25.4. The molecule B7 came in with an ELISA_avg of 20. In turn, B8 gave an ELISA_avg of 20.2. B9 yielded an ELISA_avg of 13.7.

B10 had an ELISA_avg of 13.3. The molecule B11 gave an ELISA_avg of 8.

B12 returned an ELISA_avg of 8.54. Under B13 stands 31.5; under B14, 20.1. In the case of B15, the ELISA_avg turned out to be 24.4. On to B16, for which the ELISA_avg amounted to 33.4. B17: the ELISA_avg stood at 25.3.

For the molecule B18, the ELISA_avg stood at 33.1.

The molecule B19 showed an ELISA_avg of 32.1. The molecule B20 had an ELISA_avg of 29.7. B21 had an ELISA_avg of 23.5.

As for B22, the ELISA_avg is 27.4. Turning to B23, the ELISA_avg came out at 31.9. Molecule B24 showed an ELISA_avg of 26.9.

B25 gave an ELISA_avg of 30.8. Under B26 stands 16.9; under B27, 19.4; under B28, 16.7. For the molecule B29, the ELISA_avg amounted to 30.1. On to B30, for which the ELISA_avg amounted to 11.7. On to B31, for which the ELISA_avg came to 20.3. For B32, the ELISA_avg amounted to 30.8. In the case of B33, the ELISA_avg stood at 30.4. B34: the ELISA_avg worked out at 28.7. As to B35, the ELISA_avg worked out at 23.8. For the molecule B36, the ELISA_avg is 18.3.

As to B37, the ELISA_avg was 29. Molecule B38 displayed an ELISA_avg of 30.8.

Regarding B39, the ELISA_avg turned out to be 29.6. B40 yielded an ELISA_avg of 28.5. Consider B41, for which the ELISA_avg worked out at 26.
